Assay results taken from the Human Domainome abundance scans (Beltran et al. 2025).
± gives the uncertainty stated by the source.

B1: Transitional endoplasmic reticulum ATPase, residues 26 to 106; numbered along this chain, P55072 (parent)
chain: LIVDEAINEDNSVVSLSQPKMDELQLFRGDTVLLKGKKRREAVCIVLSDDTCSDEKIRMNRVVRNNLRVRLGDVISIQPCP

Variants of: B1
Assay: abundance fitness (aPCA) (normalised: wild type 0, dead -1); higher = more abundant; growth selection in yeast, the domain comes from the species named
Conditions: Homo sapiens

Variant | abundance fitness
E5C | -0.013 ± 0.054
E5I | -0.045 ± 0.048
E5H | -0.224 ± 0.1
E5Q | -0.124 ± 0.12
E5F | 0.016 ± 0.084
P19V | 0.047 ± 0.054
R68Q | -0.119 ± 0.1
R68Y | 0.274 ± 0.23
R68M | 0.01 ± 0.087
R68K | 0.122 ± 0.12
P81C | -0.262 ± 0.29
P81A | -0.042 ± 0.044
P81T | -0.013 ± 0.12
P81S | -0.106 ± 0.064
P81H | -0.261 ± 0.1
E55A | -0.019 ± 0.061
E55S | 0.01 ± 0.056
E55P | -0.075 ± 0.083
E55C | 0.002 ± 0.068
E55V | -0.053 ± 0.046
E55Q | 0.003 ± 0.084
E55G | 0.018 ± 0.043
S17F | -0.698 ± 0.18
S17L | -0.854 ± 0.11

Variant | abundance fitness
S17I | -0.79 ± 0.17
C44I | -0.189 ± 0.099
C44G | -0.006 ± 0.051
C44Q | 0.106 ± 0.083
C44V | -0.026 ± 0.074
D73Q | 0.004 ± 0.096
D73L | -0.922 ± 0.13
D73R | -0.715 ± 0.084
D73F | -0.861 ± 0.18
R40T | 0.086 ± 0.082
R40A | 0.097 ± 0.086
R40I | -0.046 ± 0.13
R40D | -0.085 ± 0.099
V14Q | -1.02 ± 0.26
V14S | -0.801 ± 0.068
V14E | -0.945 ± 0.31
S15G | 0.034 ± 0.032
S15T | 0.004 ± 0.067
S15Q | 0.082 ± 0.053
S15P | -0.591 ± 0.097
S15V | 0.07 ± 0.037
S15W | -0.091 ± 0.092
E41I | -0.312 ± 0.14
E41H | -0.167 ± 0.14

Variant | abundance fitness
E41C | -0.399 ± 0.1
E41P | -0.131 ± 0.1
E41D | -0.125 ± 0.082
I2N | -0.059 ± 0.14
I2Y | -0.418 ± 0.22
I2W | -0.302 ± 0.11
I2M | -0.102 ± 0.075
D22I | -0.118 ± 0.085
D22K | -0.063 ± 0.083
D22L | -0.008 ± 0.048
D22P | -0.862 ± 0.18
D50I | -0.059 ± 0.1
D50N | -0.105 ± 0.16
D50F | -0.214 ± 0.13
D50K | -0.105 ± 0.18
D50P | -0.105 ± 0.11
D50A | -0.023 ± 0.056
D50G | 0.031 ± 0.046
D50Q | -0.277 ± 0.2
D50V | -0.12 ± 0.044
G29V | -0.612 ± 0.098
G29N | -0.03 ± 0.11
G29M | -0.098 ± 0.12
D10C | -0.165 ± 0.099

Variant | abundance fitness
D10K | -0.007 ± 0.11
D10Y | -0.096 ± 0.12
L71A | 0.114 ± 0.066
L71F | -0.184 ± 0.25
L71M | -0.002 ± 0.12
L71P | -0.083 ± 0.061
L71R | -0.102 ± 0.055
I75Q | -1.11 ± 0.28
I75T | -0.495 ± 0.14
I75H | -0.695 ± 0.14
I75A | -0.246 ± 0.088
N65R | -0.044 ± 0.054
N65E | -0.02 ± 0.17
N65F | -0.116 ± 0.07
G36M | -0.309 ± 0.13
G36I | -0.545 ± 0.2
G36Y | -0.186 ± 0.12
G36D | -0.262 ± 0.093
G36L | -0.757 ± 0.099
M59F | -0.333 ± 0.11
M59W | -0.99 ± 0.14
M59T | -0.275 ± 0.1
M59R | -1.08 ± 0.13
M59G | -1.01 ± 0.18

Variant | abundance fitness
L16V | -0.139 ± 0.043
L16S | -0.595 ± 0.072
L16T | -0.793 ± 0.14
V63C | 0.031 ± 0.09
V63R | -0.445 ± 0.066
V63N | -0.276 ± 0.17
V63I | 0.029 ± 0.14
V63T | 0.072 ± 0.12
V63D | 0.029 ± 0.12
V63E | -0.223 ± 0.14
V63P | -0.896 ± 0.29
L67G | -0.896 ± 0.1
L67T | -0.693 ± 0.25
L67C | -0.175 ± 0.084
L67M | -0.247 ± 0.073
L67S | -0.893 ± 0.12
L67R | -0.956 ± 0.12
L67D | -0.823 ± 0.25
N8H | -0.042 ± 0.095
N8V | -0.096 ± 0.062
N8T | 0.046 ± 0.067
N8R | -0.083 ± 0.036
N8W | -0.13 ± 0.055
N8P | -0.096 ± 0.061

Variant | abundance fitness
F27V | 0.044 ± 0.048
R61I | -0.026 ± 0.15
R61F | -0.158 ± 0.14
R61S | -0.024 ± 0.092
T31K | 0.077 ± 0.071
T31S | -0.028 ± 0.051
R39Y | -0.136 ± 0.1
R39E | 0.056 ± 0.073
R39F | -0.007 ± 0.12
R39D | 0.008 ± 0.12
K38E | -0.09 ± 0.11
K38M | -0.018 ± 0.12
K38F | -0.079 ± 0.2
I77S | -0.914 ± 0.19
I77K | -1.01 ± 0.38
V74Q | 0.037 ± 0.095
L26F | -0.285 ± 0.23
L26P | -0.859 ± 0.18
L26T | -0.462 ± 0.12
L26C | -0.346 ± 0.1
L26S | -0.838 ± 0.11
K56A | 0.018 ± 0.07
K56Y | -0.022 ± 0.1
K56H | -0.183 ± 0.26

Variant | abundance fitness
Q18Y | -0.23 ± 0.15
Q18D | -0.264 ± 0.089
Q18W | -0.206 ± 0.1
Q18T | -0.148 ± 0.096
M21S | -1.03 ± 0.16
S48N | 0.049 ± 0.14
S48G | 0.001 ± 0.049
S48A | 0.065 ± 0.065
A6E | -0.107 ± 0.059
A6F | 0.093 ± 0.085
A6K | -0.154 ± 0.079
A6I | 0.002 ± 0.12
A6C | -0.048 ± 0.077
E9V | -0.157 ± 0.052
E9L | -0.087 ± 0.044
L47W | -0.07 ± 0.073
L47F | 0.052 ± 0.12
L47G | 0.024 ± 0.043
D49G | -0.204 ± 0.054
D49Q | -0.307 ± 0.11
D49N | -0.254 ± 0.15
D49A | -0.139 ± 0.07
D49E | -0.094 ± 0.13
